Assay results: PMC3357048 (Nature structural & molecular biology, 2011)

B1: human IgE-Fc (dimer of Cε2-Cε3-Cε4 domains) (domain or fragment)
chain: CSRDFTPPTVKILQSSCDGGGHFPPTIQLLCLVSGYTPGTINITWLEDGQVMDVDLSTASTTQEGELASTQSELTLSQKHWLSDRTYTCQVTYQGHTFEDSTKKCADSNPRGVSAYLSRPSPFDLFIRKSPTITCLVVDLAPSKGTVNLTWSRASGKPVNHSTRKEEKQRNGTLTVTSTLPVGTRDWIEGETYQCRVTHPHLPRALMRSTTKTSGPRAAPEVYAFATPEWPGSRDKRTLACLIQNFMPEDISVQWLHNEVQLPDARHSTTQPRKTKGSGFFVFSRLEVTRAEWEQKDEFICRAVHEAASPSQTVQRAVSVNPGL
modifications: N-linked high-mannose carbohydrate at Asn394

Legend:
[1] = target: sFcεRIα W87D (immobilised for SPR) (human) (UniProt P12319); assay: SPR
crystal structure = target: the molecule itself; assay: crystal structure

Row | Molecule | dH [1] [kcal/mol] | stoichiometry N (crystal structure)
1 | Fcε3-4 (sub-fragment of IgE-Fc lacking the Cε2 domains) (from UniProt P01854 211-427) (domain or fragment) | -15.2 | 
2 | B1 |  | 2
